Assay results reported in patent US20250376511A1 (Sanofi, published 2025).
Changes are numbered by the printed parent chain.

T1: Human active C1s (Complement Technology) (human, UniProt P09871 16-688)
T1 sequence: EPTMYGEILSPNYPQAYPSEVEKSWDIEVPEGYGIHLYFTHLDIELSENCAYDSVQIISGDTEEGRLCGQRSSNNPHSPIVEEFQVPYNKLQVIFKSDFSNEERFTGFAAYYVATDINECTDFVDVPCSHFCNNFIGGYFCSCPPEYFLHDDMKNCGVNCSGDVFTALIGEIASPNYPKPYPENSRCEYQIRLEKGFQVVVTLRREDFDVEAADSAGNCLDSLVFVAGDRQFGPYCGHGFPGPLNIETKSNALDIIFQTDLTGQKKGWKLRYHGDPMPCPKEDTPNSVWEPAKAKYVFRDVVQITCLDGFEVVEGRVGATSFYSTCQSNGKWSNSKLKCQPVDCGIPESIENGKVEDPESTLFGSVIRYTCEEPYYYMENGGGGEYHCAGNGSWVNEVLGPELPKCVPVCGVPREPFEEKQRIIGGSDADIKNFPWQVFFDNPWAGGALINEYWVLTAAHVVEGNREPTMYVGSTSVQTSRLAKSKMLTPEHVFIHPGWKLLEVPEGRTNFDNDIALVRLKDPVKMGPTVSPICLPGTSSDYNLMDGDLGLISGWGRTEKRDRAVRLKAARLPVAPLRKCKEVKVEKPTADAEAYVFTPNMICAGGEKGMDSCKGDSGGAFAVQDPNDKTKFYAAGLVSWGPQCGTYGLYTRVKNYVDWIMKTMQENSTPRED

T2: cynomolgus aC1s (cynomolgus, UniProt A0A2K5VQX9 16-685)
T2 construct: also called Cyno aC1s; caC1s
T2 sequence: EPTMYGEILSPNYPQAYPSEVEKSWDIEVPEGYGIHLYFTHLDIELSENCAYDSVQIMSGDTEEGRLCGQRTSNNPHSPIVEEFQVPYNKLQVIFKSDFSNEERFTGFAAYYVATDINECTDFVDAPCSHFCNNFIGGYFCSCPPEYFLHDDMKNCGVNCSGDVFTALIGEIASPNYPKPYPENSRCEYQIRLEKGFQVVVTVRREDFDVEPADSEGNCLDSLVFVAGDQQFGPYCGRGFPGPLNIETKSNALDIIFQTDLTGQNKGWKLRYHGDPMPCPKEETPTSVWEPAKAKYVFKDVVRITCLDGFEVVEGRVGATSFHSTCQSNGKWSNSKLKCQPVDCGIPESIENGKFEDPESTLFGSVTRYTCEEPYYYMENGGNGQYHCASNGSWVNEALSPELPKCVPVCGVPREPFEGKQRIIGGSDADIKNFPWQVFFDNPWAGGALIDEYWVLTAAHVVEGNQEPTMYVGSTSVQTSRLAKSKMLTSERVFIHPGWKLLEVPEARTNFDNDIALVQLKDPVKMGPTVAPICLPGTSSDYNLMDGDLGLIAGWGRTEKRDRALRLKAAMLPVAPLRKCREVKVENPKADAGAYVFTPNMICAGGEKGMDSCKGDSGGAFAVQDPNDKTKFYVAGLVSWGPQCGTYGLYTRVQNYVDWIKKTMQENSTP

B1: aC1s_088 × 531v25 IgG4-PE/dK (bispecific antibody, V domains shown)
VH 1: QVQLVQSGAEVKKPGASVKLSCTASGFNIKDDYIHWVKEAPGQGLEWIGRIDPADGHTKYAPKFQVKVTITADTSTSTAYLELSSLRSEDTAVYYCARYGYGREVFDYWGQGTTVTVSS
VL 1: DIVLTQSPDSLAVSLGERATISCKASQSVDYDGDSYMNWYQKKPGQPPKILIYDASNLESGIPARFSGSGSGTDFTLTISSLEPEDFAIYYCQQSNEDPWTFGGGTKVEIK
VH 2: QVQLVQSGAEVKKPGASVKVSCKASGYTFTRYYLNWVRKAPGQGLEWIGMIDPSVSETHYAQKFQGRATLTVDKSTSTAYMELSSLRSEDTAVYYCSQIRLPYYYAMDSWGQGTTVTVSS
VL 2: DIQMTQSPSSLSASVGDRVTITCRASQDISSFLNWYQEKPGKAPKLLIYYTSRLQSGVPSRFSGSGSGTDYTLTISSLQPEDFATYYCQQGNTLPRTFGGGTKVEIK
notes: IgG4-PE Fc, dK, with charge pairing mutations; The starred variable domains are used, as for m5; also called aC1s_088-CM × 531v25 IgG4
B2: aC1s_088 × 531v23 IgG1-NNAS/dK (bispecific antibody, V domains shown)
VH 1: B1 VH 1
VL 1: B1 VL 1
VH 2: B1 VH 2
VL 2: B1 VL 2 with Q55H
notes: IgG1-NNAS Fc, dK, with charge pairing mutations; The starred variable domains are used, as for m5; also called v23 variant
B3: aC1s_088 × 531v23 IgG4-PE/dK (bispecific antibody, V domains shown)
VH 1: B1 VH 1
VL 1: B1 VL 1
VH 2: B1 VH 2
VL 2: B1 VL 2 with Q55H
notes: IgG4-PE Fc, dK, with charge pairing mutations; The charge-mutated (starred) variable domains are used for both arms; also called aC1s_088-CM × 531v23 IgG4
B4: aC1s_088 × 531v25.v6 IgG4-PE/dK (bispecific antibody, V domains shown)
VH 1: B1 VH 1
VL 1: B1 VL 1
VH 2: B1 VH 2
VL 2: B1 VL 2 with S30E
notes: IgG4-PE Fc, dK, with charge pairing mutations; The starred variable domains are used, as for m5; also called aC1s_088-CM × 531v25.v6 IgG4
B5: bispecific anti-aC1s (L2H5)/anti-TfR (531v25.v6) antibody (bispecific antibody, human IgG4 S228P, kappa)
heavy 1: QVQLVQSGAEVKKPGASVKLSCTASGFNIKDDYIHWVKEAPGQGLEWIGRIDPADGHTKYAPKFQVKVTITAATSTSTAYLQLSSLRSEDTAVYYCARYGYGREVFDYWGQGTTVTVSSASTKGPSVFPLAPCSRSTSESTAALGCLVKDYFPEPVTVSWNSGALTSGVHTFPAVLQSSGLYSLSSVVEVPSSSLGTKTYTCNVDHKPSNTKVDERVESDYGPPCPPCPAPEFEGGPSVFLFPPKPKDTLMISRTPEVTCVVVDVSQEDPEVQFNWYVDGVEVHNAKTKPREEQFNSTYRVVSVLTVLHQDWLNGKEYKCKVSNKGLPSSIEKTISKAKGQPREPQVCTLPPSQEEMTKNQVSLSCAVKGFYPSDIAVEWESNGQPENNYKTTPPVLDSDGSFFLVSRLTVDKSRWQEGNVFSCSVLHEALHSRFTQKSLSLSLG
light 1: DIVMTQSPDSLAVSLGERATISCKSSQSVDYEGDSYLNWYQKKPGQPPKLLIYDASNLESGVPDRFSGSGSGTAFTLTISSLQAEDVAVYYCQQSNEDPWTFGQGTKVEIKRTVAAPAVFIFPPSKKQLKSGTASVVCLLKNFYPREAKVQWKVDNALQSGNSQESVTEQDSKDSTYSLSSTLTLSKADYEKHKVYACEVTHQGLSSPVTKSFNRGEC
heavy 2: QVQLVQSGAEVKKPGASVKVSCKASGYTFTRYYLNWVRKAPGQGLEWIGMIDPSVSETHYAQKFQGRATLTVDKSTSTAYMELSSLRSEDTAVYYCSQIRLPYYYAMDSWGQGTTVTVSSASTKGPSVFPLAPCSRSTSESTAALGCLVKDYFPEPVTVSWNSGALTSGVHTFPAVLQSSGLYSLSSVVTVPSSSLGTKTYTCNVDHKPSNTKVDKRVESKYGPPCPPCPAPEFEGGPSVFLFPPKPKDTLMISRTPEVTCVVVDVSQEDPEVQFNWYVDGVEVHNAKTKPREEQFNSTYRVVSVLTVLHQDWLNGKEYKCKVSNKGLPSSIEKTISKAKGQPREPQVYTLPPCQEEMTKNQVSLWCLVKGFYPSDIAVEWESNGQPENNYKTTPPVLDSDGSFFLYSRLTVDKSRWQEGNVFSCSVLHEALHSHYTQKSLSLSLG
light 2: DIQMTQSPSSLSASVGDRVTITCRASQDIESFLNWYQEKPGKAPKLLIYYTSRLQSGVPSRFSGSGSGTDYTLTISSLQPEDFATYYCQQGNTLPRTFGGGTKVEIKRTVAAPSVFIFPPSDEQLKSGTASVVCLLNNFYPREAKVQWKVDNALQSGNSQESVTEQDSKDSTYSLSSTLTLSKADYEKHKVYACEVTHQGLSSPVTKSFNRGEC
notes: Purified from CHO cells; monovalent for aC1s

Tests used:
[1] = target: T1, Human active C1s (Complement Technology); assay: cell-based or functional assay
[2] = target: T1, Human active C1s (Complement Technology); assay: cell-based or functional assay; remark: listed apart in the source
[3] = target: T3, His-tagged recombinant human TfR (produced in-house) (human, UniProt P02786 89-760); assay: hTfR affinity, SPR (method not restated for Table 1; same value as Table 2)
T3 construct: also called hTfR; transferrin receptor 1
T3 sequence (P02786 89-760 limits assumed): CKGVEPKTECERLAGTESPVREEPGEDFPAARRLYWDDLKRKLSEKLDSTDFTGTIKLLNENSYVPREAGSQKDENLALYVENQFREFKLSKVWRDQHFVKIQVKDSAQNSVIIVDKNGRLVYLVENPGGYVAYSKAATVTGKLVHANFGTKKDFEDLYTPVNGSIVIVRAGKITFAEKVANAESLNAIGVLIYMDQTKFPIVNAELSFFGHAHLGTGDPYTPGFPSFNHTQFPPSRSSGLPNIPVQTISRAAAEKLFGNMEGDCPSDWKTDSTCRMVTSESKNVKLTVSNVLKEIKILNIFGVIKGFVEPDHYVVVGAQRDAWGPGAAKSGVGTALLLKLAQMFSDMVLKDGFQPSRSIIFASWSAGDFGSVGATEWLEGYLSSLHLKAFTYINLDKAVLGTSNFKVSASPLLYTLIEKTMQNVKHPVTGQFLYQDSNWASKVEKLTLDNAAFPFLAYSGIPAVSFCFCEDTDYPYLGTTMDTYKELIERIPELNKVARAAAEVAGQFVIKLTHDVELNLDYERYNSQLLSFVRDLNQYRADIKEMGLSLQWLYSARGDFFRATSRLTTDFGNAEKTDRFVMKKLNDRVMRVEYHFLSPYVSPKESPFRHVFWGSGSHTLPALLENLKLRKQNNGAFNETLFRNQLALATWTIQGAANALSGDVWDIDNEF
Protocol: (§1) TfR and C1s binding using surface plasmon resonance (SPR): Analysis of antibody binding to TfR was performed on a Biacore™ T200 instrument using anti-His capture at 25° C. Anti-His (Qiagen) was buffer exchanged into PBS pH 7.2, diluted to 25 μg/mL in 10 mM sodium acetate pH 4.0 and directly immobilized to a series S CM5 chip to a surface density of ˜10,000 RU using the amine coupling kit provided by Cytiva. His-tagged recombinant human TfR (produced in-house) was diluted in HBS-EP+ pH 7.4 running buffer (10 mM HEPES pH 7.4, 150 mM NaCl, 3 mM EDTA, 0.05% surfactant P20) and injected for 5 sec at 20 μL/min flowrate to obtain capture level of 20 RU. Antibodies were serially diluted 2-fold from 90 to 5.625 nM in running buffer and injected over the captured TfR for 3 min followed by 9 min dissociation in buffer at 30 μL/min. Each cycle was regenerated with 10 mM glycine pH 1.5. To measure C1s binding, anti-human Fc (Jackson) was directly immobilized to a CM5 chip using amine chemistry. Antibodies were diluted to 2.5 μg/mL in HBS-EP+ pH 7.4 and captured to the chip for 15 sec at 20 μL/min flowrate. Human active C1s (Complement Technology) was serially diluted 2-fold from 20 to 0.625 nM in running buffer and injected over the captured antibodies for 180 sec at 50 μL/min followed by 9 min dissociation in buffer. The bound complex was removed from the chip each cycle with 40 mM HCl and 0.85% phosphoric acid. Sensorgrams were processed using the Biacore™ Insight software and fit to a 1:1 binding model to obtain kinetic constants.
(§2) The six bispecific anti-aC1s/anti-TfR antibodies were first tested for their affinity for both TfR and aC1s via surface plasmon resonance (SPR) (Table 2).

[4] = target: T1, Human active C1s (Complement Technology); assay: SPR Biacore T200, antibody captured on anti-human Fc, human active C1s as analyte, 1:1 fit
Protocol: as §1, §2

[5] = target: T3, His-tagged recombinant human TfR …; assay: SPR Biacore T200, His-tagged human TfR captured on anti-His, antibody as analyte, 25 C, 1:1 fit
Protocol: as §1, §2

[6] = target: T3, His-tagged recombinant human TfR …; assay: SPR Biacore T200 (Table 2)
Protocol: as §1, with “The bound complex was removed from the chip each cycle with 40 mM HCl and 0.85% phosphoric acid. Sensorgrams were processed using the Biacore™ Insight software and fit to a 1:1 binding model to obtain kinetic constants.” left out

[7] = target: T1, Human active C1s (Complement Technology); assay: cell-based or functional assay; remark: listed apart in the source
[8] = target: T3, His-tagged recombinant human TfR …; assay: affinity of bispecific purified from CHO cells (SPR; details not restated)
[9] = target: T1, Human active C1s (Complement Technology); assay: as above
[10] = target: T4, cynomolgus TfR (cynomolgus, UniProt H9EXL1 89-760 (rhesus entry)); assay: as above
T4 construct: also called Cyno TfR; cTfR
T4 sequence (chain, as listed by the source): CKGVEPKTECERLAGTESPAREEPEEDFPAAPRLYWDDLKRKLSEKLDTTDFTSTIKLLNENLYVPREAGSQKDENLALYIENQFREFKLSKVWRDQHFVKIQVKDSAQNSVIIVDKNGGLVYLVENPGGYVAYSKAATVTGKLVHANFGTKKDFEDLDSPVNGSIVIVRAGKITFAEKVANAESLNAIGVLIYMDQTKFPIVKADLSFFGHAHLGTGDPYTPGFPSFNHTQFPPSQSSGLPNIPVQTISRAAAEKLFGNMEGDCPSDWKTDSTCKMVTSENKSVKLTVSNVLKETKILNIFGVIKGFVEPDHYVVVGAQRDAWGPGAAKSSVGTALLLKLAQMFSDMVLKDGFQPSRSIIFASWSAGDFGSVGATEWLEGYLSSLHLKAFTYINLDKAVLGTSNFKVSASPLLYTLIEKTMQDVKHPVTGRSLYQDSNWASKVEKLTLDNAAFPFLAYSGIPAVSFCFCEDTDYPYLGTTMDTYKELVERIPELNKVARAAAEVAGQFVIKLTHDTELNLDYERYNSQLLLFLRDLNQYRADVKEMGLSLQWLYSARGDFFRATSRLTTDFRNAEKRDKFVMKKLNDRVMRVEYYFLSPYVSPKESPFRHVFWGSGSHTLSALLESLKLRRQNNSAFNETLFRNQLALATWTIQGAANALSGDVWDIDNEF

[11] = target: T2, cynomolgus aC1s; assay: as above

| IC50, Wieslab Complement Pathway Assay (classical pathway, 1% NHS) [1] | IC50, C3d deposition on neurons in iPSC tricultures with serum [2] | Kd [3] | Kd [4] | koff [4] | kon [4] | Kd [5] | koff [5] | kon [5] | fold higher affinity than the 531v25 and 531v25.v6 variants [6] | IC50, Wieslab Complement Pathway Assay [7] | IC90, Wieslab Complement Pathway Assay [7] | Kd [8] | Kd [9] | Kd [10] | Kd [11] | Binder |
| --- | --- | --- | --- | --- | --- | --- | --- | --- | --- | --- | --- | --- | --- | --- | --- | --- |
| 1.63 µg/mL | 29.3 µg/mL | 22.6 nM | 0.75 nM | 0.00246 s⁻¹ | 3.31e+06 M⁻¹ s⁻¹ | 22.6 nM | 0.00413 s⁻¹ | 183000 M⁻¹ s⁻¹ | – | – | – | – | – | – | – | B1 |
| 1.67 µg/mL | 13.9 µg/mL | – | 0.66 nM | 0.00275 s⁻¹ | 4.18e+06 M⁻¹ s⁻¹ | 10.3 nM | 0.00197 s⁻¹ | 192000 M⁻¹ s⁻¹ | ~2 fold | – | – | – | – | – | – | B2 |
| 1.67 µg/mL | 16.2 µg/mL | 9.65 nM | 0.79 nM | 0.00245 s⁻¹ | 3.14e+06 M⁻¹ s⁻¹ | 9.65 nM | 0.00183 s⁻¹ | 189000 M⁻¹ s⁻¹ | ~2 fold | – | – | – | – | – | – | B3 |
| 1.79 µg/mL | 7.48 µg/mL | 18.9 nM | 0.76 nM | 0.00273 s⁻¹ | 3.59e+06 M⁻¹ s⁻¹ | 18.9 nM | 0.00304 s⁻¹ | 161000 M⁻¹ s⁻¹ | – | – | – | – | – | – | – | B4 |
| – | – | – | – | – | – | – | – | – | – | 1.23 µg/mL | 9.7 µg/mL | 34.3 nM | 2.64 nM | 48.9 nM | 0.315 nM | B5 |
